Assay: yeast display, Sf9 membrane polyspecificity reagent, FACS + sequencing; frameworks hold sequencing errors
Summary of the method: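 Using colony PCR, genes from sorted yeast display clones were amplified, then sequenced on MiSeq at 2 × 250 and filtered by CDR length. The clones had been stained with 10% biotinylated, detergent-solubilized Sf9 membrane reagent for 1 hour at 4 °C and sorted by FACS into low and high (top ~1%) gates on anti-HA and streptavidin fluorescence. Polyreactivity labels come from the gate of origin.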

Row | Sequence | polyreactivity (PSR sort gate)
1 | QVQLVESGGGLVQAGGSLRLICAASGRIFSGNTMGWYRQAPGKERELVAAISKSGGRTYYADSVKGRFTISRDNAKYTFYLQMNSLKPEDTAVYYCNADYRSHYLYDYWGQGTQVTVSS | low polyreactivity
2 | QVQLVESGGGLVQAGGSLRLSCAASGSSIYVYVMGWYRQAPGKERELVAVIDWRGGSTYYADSVKGRFTISRDNAKNTVYLQMNSLKPEDSSVYYCNKVAQFYYKLPYYKERDWGQGTQVTVSS | low polyreactivity
3 | HVQLVESGGGLVQAGGSLRLSCAASGSTFGRYVMGWHRQAPGKERELVAAISKNAGSTYYADSVKGRFTISRDNAKNTVYLKMASLKPEDTAVYYCAADWRTKGYDSLGQGTQVTVSS | high polyreactivity
4 | QVQLVESGAGLVQAGGSLRLSCADSGSTFQPYAMGWYRQAPGKEREFVATISGSAGSKYYADSVKGRFKISRDNAKNTVYLQKNSLKPEDTAVYYCNADSGWFGYDYWGQGTQVTVSS | low polyreactivity
5 | QVQLVESGGGLVQAGGSLRLSCAASGFTFHYYAMGWYRQAPGKERELVAAISWSSGRTYYADSVKGRFTISRDNAKNTVYLQMNSLKPEDTAVYYCAASSYNRRDYWGQGTQVTVSS | high polyreactivity
6 | QVQLVESGGGLVPARGSLRLSSAASGIIFSRYAMGWYRQAPGKERELVAAITRSGGDTYYADSVKGRFTISRDNAKTTFYLQMKSLTPEDSADYYCAAERTWYPWVATGYYWGQGTQVTVSS | low polyreactivity
7 | QVQLVESGGGLVQAGGSLRLSCAASGRIFSPYAMGWYRQAPGKERELVAAINYSGSRTYYADSVTGRFTISRDNAKNTVYLQMNSLKPEDTAVYYCARPWAPSSRGNGYWGLGTQVTVSS | high polyreactivity
8 | QDQLVESGGRLVQAGGSLRLSCAASGRTVYYYTMGWYRQAPGKEREFVAGIRYSGSSTYYADSVKGRFTISRDTAKNTVSFQMNSLKPEATAVYYCAASLWRWRFSRFGYWGQGTQVTVSS | high polyreactivity
9 | QVQLVESGGGLVQAGGSLRLSCAASGITVWIYAMGWYRQAPGKERELVAAITGRGGSTYYADSVKGRFTISRDKAKNTLYLQRNSLKPEDTAVYYCAAESWYSTYDYWGQGTQVTVSS | high polyreactivity
10 | QVQLVESGGGLVQAGGSLRLSCAASGSIFPSYAMGWYRQAPGKERELVAAISRSAGSTYYADSVKGRFTISRDNAKNTVYLQMNSLKPEDTAVYYCAAEGYSSRYRYDYWGQGTQVTVSS | low polyreactivity
11 | HGQLVDSGGGLVQAGGSLRLICAASGYTYYDYAMGRYREAPGKEMELVADISTSDGSTFYADSVKGRFTISRDNAKNTVYLQMNSLKPEDTAVYYCNTDGSLGLYDWFWPSNNDYWGQGTQVTVSS | low polyreactivity
12 | QVQLVESGGGLVQAGGSLRLTCAASGSTFKYYAMGWYRQAPGKERELVAAINQSGGNTFYAESVKGRFTISRDNAKNSVSLQINSLKPEDTAVYYCAADYYFYTIVSSEMDYWGQGSQVTVSS | high polyreactivity
13 | QVQLVETRGGLVQAGGRLRLSCAASGGIFPVNAMGWYRQAPGKERELVAAISWSVGRTYYADSVKGRFTISRDNAKNTVYLQMISLKREDTAVYYCAAEWFGVYRRYKYDYCGQGTQVTVSS | low polyreactivity
14 | QVQLVESGGGLVQAGGSLRLSCAASGFTFSVYAMGWYRQAPGKERELVASITNGGTTYYADSVKGRFTISRDNAKNTVYLQMNSLKPEDTAVYYCAAKLYSWYHKFVNPTYGYWGQGTQVTVSS | high polyreactivity
15 | QVQLVESGGGLVQAAGSLRLSCAASGLTFYYYAMGWYRQAPGKERELVAGISGSDGSTYYADSVNGRFTISRDNAKNSVYLQMNSLTPEDTAVYYCAAEYYYAWPLYYITDGIYDMYYWGQGTQVTVSS | low polyreactivity
16 | QVQLVESGGGLVQAGGSLRLSSAASGFTFLYNAMGWYRQAPGKERELVASIRTGTGTYYADSVKGRFTISRDNAKNNVYLQMISLKPEDTAVYYCAADYRYKSQWWYRRFDYWGQGTQVNVSS | high polyreactivity
17 | QVQLVESGGGLVQAGGSLRLSCAASGSTFLLYAMGWSRQAPGKERELVASISGDGSTNYADSVKGRFTISRDNAKNTVYLQMNSLKPEDTAVYYCARDTVHRLRISSVISNYWGQGTQVTVSS | low polyreactivity
18 | QVQLVESGGGLVQAGGSLRLSCAASGSIFDDYAMGWYRQATGKERQLVAAISSSGTSTYYADSVKGRFTISRDNAKNTVYLQMNSLKPEDTAVYYCAARSAILKSGYLMDYWGQGTQVTVSS | low polyreactivity
19 | QVQLVESGGGLVQAGGSLRISCAASGSIFYENTMGWYRQAPGKEREFVAAISRSGGSTYYADSVKGRFTISRDNAKNTVYLQMNSLKPEDTAVYYCAARSRPGYAVYYWGQGTQVTVSS | high polyreactivity
20 | QVQLVESGGGLVQAGGSLRLSCAASGNIFSAYAMGWYRQAPGTERELVAAISRSVTITYYADSVKGRFTISRDNAKKTDYLQMNSLKPEDTAVYYCAARDYHYPKFGYCGQGTQVTVSS | high polyreactivity
21 | QVQLVESGGGLVQAGGSLRLSCAASGFTFRAYAMGWYRQAPGKERELVAAITYSGDRTYYADSVKGRFTISRDNAKNTVYLQMNSLKPEDTAVYYCAAYGAKVNRPGYYYWGQGTQVTVSS | high polyreactivity
22 | QVQLVESGGGLVQAGGSLRLSCAASGRIFPGYAMGWYRQAPGKERELVAGITWRTARTYYADSVKGRFTISRDNAKNTVYLQMNSLKPEDTAVYYCAAKYARYGRHVIFDYWGQGTQVTVSS | high polyreactivity

Row | Sequence | polyreactivity (PSR sort gate)
23 | QVQLVESGGGLVQAGGSLRLSCAASGSTFAYNTMGWYRQAPGKERELVAAISQRGGSTYADSVKGRFTISRDNAKNTVYLQMNSLKPEVTAVYYCNKRNVYYSYPFDYDYWGQGTQVTVSS | low polyreactivity
24 | QVQLVESGGGLVQAGGSLRLSCAASGFTFSSDAMGWYRQAPGKERELVAAITWRGGTTYYADSVKGRFTISRDNAKNTVYLQMNSLKPEDTAVYYCAVDFKRVIRGSRWGDYWGQGTQVTVSS | high polyreactivity
25 | QVQLQESGGGLVQACGSLRLSCAASGYIFSHQYMGWYRQAPGKERELVASISPGATTNYADSVKGRFTISRDNAKNTVFLQMNSLKPEDTAVYYYAVYQMLDRRLSYWGQGTQVTVSC | high polyreactivity
26 | QVQLVESGGGLVQAGGSLRLSCAASGGIFAYMGWYRQAPGKERELVASITSSGGSTYYADSVKGRFTISRDNAKNTVYLQMNSLKPEDTAVYYCAADPDFYKSVQYDYWGQGTQVTVSS | low polyreactivity
27 | QVQLVESGGGLVQAGGSLRLSCAASGITLNRNAMGWYKQAPGKERELVARISRRGGTTYYADSVKGRFTISRDNAKNTVYLQLNSLKPEDSAVYYCAKVRRRWGYPSYSYPYGYWGQGTQVTVSS | high polyreactivity
28 | QVHLVESGGGLVQAGGSLRLSCAASGSIFKPYTMRWYRQAPGTERELVAVITRRGGSTYYADSVKGRFTISRDNAKNTVYLQMNSLKPEDTAVYYCAAEYDYYGWWNDYWGQGTQVTVSS | high polyreactivity
29 | QVQLVESGGGLVQAGGSLRLSCAASGGIFRYYAMGWSRQAPGKEMELVAAITRGGRTSYADSVKGRFTISRDNAKNSVYLQMNSLKPEDTAVYYCNAKRPYQEHNSYGYWGQGTLVTVSS | high polyreactivity
30 | QVQLVESGGGLVQAGGSLRLSCAASGLIFKLYAMGWYRQAPGKERELVAAITDRGGSTYYADSVKGRFTISRDNAKNTVYLQMNSLKPEDTAVYYCAAPYAGWRDGGDYWGQGTQVTVSS | low polyreactivity
31 | QVQLQESGGGLVQAGGSLRLSCASSGTISPLPAMGWYRQAPGKEREYVAGIDTGAITNYADSVKGRFTISRDNAKNTVYLQMNSLQPEDTAVYYCAVFPAAYDYYESYYTYWGQGTQVTVSS | low polyreactivity
32 | QVQLVESGGGLVQAGGSLRLSCAASGITFEGYSMGWYRQAPGKERELVAAIRSSGTSTYYADSVKGRFTISRDNAKNTVYLQMNSLKPEDTAVYYCNRARSSSRYDYWGQGTQVTVSS | low polyreactivity
33 | QVQLVESGGGLVQAGGSLRLSCAASGSTFETYAMGWYRQAPGKEMELVAAISKTGARTYYADSVKGRFTISRDNAKNTVYLQMNSLKPEDTAVYYCAAERKAHRKPHSRVDKYYYWGQGTQVTVSS | high polyreactivity
34 | QVQLQVSGGGLVQAGGSLRLSCAASGSIFLTSEMGWYRQAPGKERELVAAIATGTSTNYADSVKGRFTISRDNAKNTVYLQMNSLKPEDTAVYYCATYHYWGQGTQVTVSS | low polyreactivity
35 | QVQLVESGRGLVQAGGSLRLSCAASGSIFEINAMGWYRQAPGIERELVAAITGSGGSTHYADSVKGRFTISRDNAKNTVSLQMNSLKPEDTAVYYCAAVPRYQYGYWGQGTQVTVSS | low polyreactivity
36 | QVQLVESGGGLVQAGGSLRLSCAASGSTFSYYAMGWYRQAPGKEREFVAAISYSTTSTFYADSVKGRFTISRDNAKNTVYLQMNSLKPEDTAVYYCAARARYSPATYDYWGQGTQVTVSS | high polyreactivity
37 | QVQLVESGGGLVQAGGSLRLSCAASGITFRSYAMGWYRQAPGKERELVAAISTSGGRTYYADSVKGRFTISRDNAKNTVYLQMNSLKPEDTAVYYCNKVGAVYGYYAYGLGYWGQGTQVTVSS | high polyreactivity
38 | QVQLVESGGGLVQAGGSLRLSCAASGRIFATNARGWYRQAPGKERELVAVISSGGSTNYADSVKGRFTISRDNAKNTVYLQMNSLKPEDTAVYYCAASPGSRPTQPYDYWGQGTQVTVSS | low polyreactivity
39 | QVQLVESGGGLVQAGRSLRLSCAASGFIFWRYAMGWYRQAPGKERELVAAISSGRNTKYADSVKGRFTISRDNAKTTVYLQMNSLKPEDTAVYYCAVLGKYLWSATNRFPGSYDSWGHGTQVTVSS | high polyreactivity
40 | QVQLVESGGGLVQAGGSLRLSCAASGRTIYWNAMVWSRQAPGKERELVAAISNGGTTTYYADSVKGRFTISRDNAKNTVYLQMNSLKPEDTAVYYCAGDIRYFDYDYWGQGTQLTVSS | high polyreactivity
41 | QVQLVESGGGLVQAGGSLRLSCAASGSTFYAYTMGWYRQAPGKARELFGTISSSGGRTNYADSVKGRFTISRDNAKNTVYLQMNSLKPEDTAVYYCAARSRVRNLVNGYTGLWYDYWGQGTQVTVSS | high polyreactivity
42 | QVQLVESGGGLVQAGGSLRLSCAASGYTFLGNAMGWYRQAPGKERELVAAISSGGTTYYADSVKGRFTISRDNEKNTVYFQMNSLKPEDTAVYFCATVFRDYDFNHWGQGTQVTVSS | low polyreactivity
43 | QVQLVESGGGLVQAGGSLRLSCAASGRTFDYYAMGWYRQAPGKERELVAAITKDGGSTYYADSVKGRFTISRDNAKNTVYLQMNSLIPEDTAVYYCAADGPPQYYDPIHYDYWGQGTQVTVSS | low polyreactivity

Source: the nanobody polyreactivity screen of Harvey et al. (2022)
